In publication PMC5389851:

Molecular target: HCMV glycoprotein gO (virion, strain TB40) (human cytomegalovirus strain TB40 (endogenous in virions))

**Q.** With “recombinant human PDGFR-α-Fc fusion protein (from UniProt P16234)” as the substance, how does the infection of HFF with wt TB40-luc virus pre-incubated with PDGFR-α-Fc (one hour at 4°C; luciferase assay), residual infection; blocks gH/gL/gO of virions with PDGFR-α on HFF read?
**A.** The infection of HFF with wt TB40-luc virus pre-incubated with PDGFR-α-Fc (one hour at 4°C; luciferase assay), residual infection; blocks gH/gL/gO of virions with PDGFR-α on HFF was 0.5%.
